In test [1] the target is Fibronectin receptor (human), P08648. Kind of test: ELISA. Particulars: modification not given.
Test [2] deals with Platelet glycoprotein IIb/IIIa (human), P08514. Kind of test: cell-based or functional assay.
Test [3] concerns the target T1, Vitronectin receptor (human), P06756.
T1 chain 1: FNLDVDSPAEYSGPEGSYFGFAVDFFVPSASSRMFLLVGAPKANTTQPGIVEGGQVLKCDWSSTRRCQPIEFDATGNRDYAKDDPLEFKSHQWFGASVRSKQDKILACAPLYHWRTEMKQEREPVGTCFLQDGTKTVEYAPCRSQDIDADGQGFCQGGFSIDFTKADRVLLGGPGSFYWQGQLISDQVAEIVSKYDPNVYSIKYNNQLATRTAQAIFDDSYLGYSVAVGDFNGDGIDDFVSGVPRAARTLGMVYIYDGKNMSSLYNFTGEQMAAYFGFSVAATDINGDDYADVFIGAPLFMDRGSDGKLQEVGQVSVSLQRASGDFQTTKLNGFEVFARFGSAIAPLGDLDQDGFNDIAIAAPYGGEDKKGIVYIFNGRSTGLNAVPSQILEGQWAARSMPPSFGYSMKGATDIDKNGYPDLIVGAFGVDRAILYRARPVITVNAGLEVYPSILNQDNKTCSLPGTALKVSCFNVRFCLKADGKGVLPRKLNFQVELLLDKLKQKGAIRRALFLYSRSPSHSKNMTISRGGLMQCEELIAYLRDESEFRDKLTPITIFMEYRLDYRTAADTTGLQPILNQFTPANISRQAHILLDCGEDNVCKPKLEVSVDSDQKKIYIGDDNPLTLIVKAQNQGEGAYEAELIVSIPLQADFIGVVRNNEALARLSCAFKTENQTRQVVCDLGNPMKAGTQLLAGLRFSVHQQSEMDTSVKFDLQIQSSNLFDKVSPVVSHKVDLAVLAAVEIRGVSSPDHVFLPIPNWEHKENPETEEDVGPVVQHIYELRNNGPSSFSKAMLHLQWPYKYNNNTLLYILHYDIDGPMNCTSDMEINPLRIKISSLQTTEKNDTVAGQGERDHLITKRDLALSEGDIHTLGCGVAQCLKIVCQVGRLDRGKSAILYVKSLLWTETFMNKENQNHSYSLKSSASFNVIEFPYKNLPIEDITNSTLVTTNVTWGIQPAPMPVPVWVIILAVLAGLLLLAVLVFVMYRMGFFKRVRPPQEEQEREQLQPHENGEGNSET
T1 chain 2: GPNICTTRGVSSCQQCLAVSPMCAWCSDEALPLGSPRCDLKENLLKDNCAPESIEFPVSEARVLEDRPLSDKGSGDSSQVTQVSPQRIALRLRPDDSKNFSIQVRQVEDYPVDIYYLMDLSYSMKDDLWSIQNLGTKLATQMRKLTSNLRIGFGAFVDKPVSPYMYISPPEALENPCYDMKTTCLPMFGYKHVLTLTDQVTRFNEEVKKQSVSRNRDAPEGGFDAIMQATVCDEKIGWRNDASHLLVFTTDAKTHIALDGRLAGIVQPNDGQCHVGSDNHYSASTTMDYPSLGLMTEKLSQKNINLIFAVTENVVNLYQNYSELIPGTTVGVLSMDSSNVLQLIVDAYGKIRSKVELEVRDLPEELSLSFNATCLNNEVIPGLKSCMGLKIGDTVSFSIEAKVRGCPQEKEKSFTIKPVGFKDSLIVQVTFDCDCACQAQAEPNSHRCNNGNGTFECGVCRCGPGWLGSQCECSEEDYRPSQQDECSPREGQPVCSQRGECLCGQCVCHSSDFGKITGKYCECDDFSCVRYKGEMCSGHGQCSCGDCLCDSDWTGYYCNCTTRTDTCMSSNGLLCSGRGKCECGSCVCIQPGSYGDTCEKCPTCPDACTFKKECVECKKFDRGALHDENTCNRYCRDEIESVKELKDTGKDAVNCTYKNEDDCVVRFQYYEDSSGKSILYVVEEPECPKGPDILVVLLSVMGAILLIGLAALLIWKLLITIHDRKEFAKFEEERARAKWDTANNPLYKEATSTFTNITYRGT
Kind of test: competition, ELISA or liposome assay, vitronectin coated.

Test [4] concerns the target Platelet glycoprotein IIb/IIIa (human), P08514. Kind of test: competition, ELISA or liposome assay.
Test [5] has the same target. Kind of test: ELISA. Particulars: modification not given.

Starred links: 1 amine or outer side, 2 acyl side, 3 side chain; linkers in the order of their positions; H or OH if unused. Positions of bridges follow the written chain, without caps; N, C: chain ends. Non-standard residues stand in square brackets, D forms with d. Primed or numbered codes have the meaning given here. No end group written: not given here. Pmc′ = pentamethylenecysteine (from Boc-D/L-Pmc), O=C(C(N[*:1])C1(S[*:3])CCCCC1)[*:2]; Cys(β,β-pentamethylene) = O=C([C@@H](N[*:1])C1(S[*:3])CCCCC1)[*:2]; Tyr(Me)″ = COc1ccc(C[C@H](N[*:1])C(=O)[*:2])cc1; 2Nal = N[C@@H](Cc1ccc2ccccc2c1)C(=O)O; Pen = CC(C)(S)[C@H](N)C(=O)O A value given as a limit tells only on which side of the number the result lay.

Fibronectin receptor (human), P08648, sequence (P08648 42-1049, chain 1 of 2): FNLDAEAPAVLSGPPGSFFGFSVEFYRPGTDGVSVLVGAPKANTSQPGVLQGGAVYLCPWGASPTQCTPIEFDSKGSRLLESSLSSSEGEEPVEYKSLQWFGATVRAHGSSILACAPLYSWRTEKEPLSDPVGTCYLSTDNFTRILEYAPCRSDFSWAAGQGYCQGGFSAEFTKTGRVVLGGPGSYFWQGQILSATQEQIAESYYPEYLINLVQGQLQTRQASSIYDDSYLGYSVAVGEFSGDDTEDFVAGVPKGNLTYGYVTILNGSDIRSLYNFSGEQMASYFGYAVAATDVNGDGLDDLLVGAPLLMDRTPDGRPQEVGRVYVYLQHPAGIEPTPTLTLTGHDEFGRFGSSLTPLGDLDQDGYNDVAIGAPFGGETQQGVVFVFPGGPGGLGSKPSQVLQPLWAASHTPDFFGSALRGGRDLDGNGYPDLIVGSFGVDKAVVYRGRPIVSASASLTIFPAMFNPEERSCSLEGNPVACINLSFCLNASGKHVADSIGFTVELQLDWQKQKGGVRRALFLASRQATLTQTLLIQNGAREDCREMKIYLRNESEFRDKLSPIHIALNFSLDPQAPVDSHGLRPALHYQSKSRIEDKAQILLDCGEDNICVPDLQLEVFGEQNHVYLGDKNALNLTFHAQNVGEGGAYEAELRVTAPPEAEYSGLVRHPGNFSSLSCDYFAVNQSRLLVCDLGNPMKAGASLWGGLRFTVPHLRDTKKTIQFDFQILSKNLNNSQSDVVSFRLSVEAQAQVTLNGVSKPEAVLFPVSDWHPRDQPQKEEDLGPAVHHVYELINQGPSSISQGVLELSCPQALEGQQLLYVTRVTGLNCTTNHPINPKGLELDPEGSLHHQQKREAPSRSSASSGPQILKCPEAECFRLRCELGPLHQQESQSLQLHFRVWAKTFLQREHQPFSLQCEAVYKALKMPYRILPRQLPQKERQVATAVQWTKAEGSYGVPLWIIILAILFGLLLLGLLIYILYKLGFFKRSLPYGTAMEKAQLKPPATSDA
Fibronectin receptor (human), P08648, sequence (chain, as listed by the source, chain 2 of 2): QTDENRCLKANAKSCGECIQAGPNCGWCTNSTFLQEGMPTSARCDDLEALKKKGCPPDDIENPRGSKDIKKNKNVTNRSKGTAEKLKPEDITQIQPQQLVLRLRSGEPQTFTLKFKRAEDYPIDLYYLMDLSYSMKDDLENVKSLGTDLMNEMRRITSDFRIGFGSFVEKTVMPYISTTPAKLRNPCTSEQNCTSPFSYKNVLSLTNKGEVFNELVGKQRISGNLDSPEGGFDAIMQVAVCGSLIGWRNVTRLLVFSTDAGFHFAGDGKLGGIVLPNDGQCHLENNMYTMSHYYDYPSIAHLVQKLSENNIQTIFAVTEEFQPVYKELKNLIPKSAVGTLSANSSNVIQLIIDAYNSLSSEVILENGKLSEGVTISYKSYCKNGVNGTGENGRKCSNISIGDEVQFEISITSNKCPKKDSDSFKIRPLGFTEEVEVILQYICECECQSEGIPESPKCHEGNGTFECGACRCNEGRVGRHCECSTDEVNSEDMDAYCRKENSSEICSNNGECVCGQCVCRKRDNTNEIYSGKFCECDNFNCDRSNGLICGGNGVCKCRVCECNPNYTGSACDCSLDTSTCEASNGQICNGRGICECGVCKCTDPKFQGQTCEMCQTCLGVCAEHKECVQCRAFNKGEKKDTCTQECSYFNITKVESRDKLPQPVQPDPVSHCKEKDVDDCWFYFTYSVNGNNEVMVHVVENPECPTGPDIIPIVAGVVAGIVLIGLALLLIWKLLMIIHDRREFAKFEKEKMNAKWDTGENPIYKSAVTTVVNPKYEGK

B1: R(Pmc)G(DY)RGD(Y-OMe)RCR (peptide)
chain: R[Cys(β,β-pentamethylene)]GXRGD[Tyr(Me)″]RCR
modifications: disulfide 2-10; not fully specified (residue 4); printed as R(Pmc)G(DY)RGD(Y-OMe)RCR
For the molecule B1, in test [1], the IC50 was 10000 nM.
With G[Pen]IARGDWNCA (disulfide 2-10) [G(Pen)…], in test [2], the IC50, ADP-Stimulated Aggregation was 1200 nM. For the same molecule, the IC50 in test [3] came to 40 nM; in test [4] it was 10 nM.
With R[Cys(β,β-pentamethylene)]GHRGD[2Nal]RCR (disulfide 2-10) [R(Pmc)GHRGD(2-Nal)RCR], in test [5], the IC50 is 70 nM.
Regarding R[Pmc′]SHRGD[Y‑OMe]RCR (disulfide 2-10) [R(Pmc)SHRGD(Y-OMe)RCR], in test [1], the 50% inhibitory concentration (IC50) is above 10000 nM.
In the case of R[Pmc′]RHRGD[Y‑OMe]RCR (disulfide 2-10) [R(Pmc)RHRGD(Y-OMe)RCR], in test [5], the IC50 is 70 nM.

Values taken from patent US6521594.
